What was measured:
ICOS [1] = target: T1, ICOS (human, UniProt Q9Y6W8 21-140, limits assumed); test: ELISA on coated protein (Table 22)
T1 sequence (looked up): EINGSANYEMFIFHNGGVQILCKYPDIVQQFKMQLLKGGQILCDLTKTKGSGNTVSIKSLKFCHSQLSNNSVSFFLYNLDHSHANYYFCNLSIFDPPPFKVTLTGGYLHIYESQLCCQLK

CTLA4 [2] = target: T2, CTLA4 (human, UniProt P16410 37-162, limits assumed); test: ELISA on coated protein (Table 22)
T2 sequence (looked up): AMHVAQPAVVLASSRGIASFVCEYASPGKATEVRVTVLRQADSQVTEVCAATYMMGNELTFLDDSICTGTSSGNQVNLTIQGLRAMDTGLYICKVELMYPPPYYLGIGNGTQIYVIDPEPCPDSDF

B7-1 = target: T3, B7-1 (human, UniProt P33681 35-242); test: ELISA on coated protein (Table 22)
T3 sequence (looked up): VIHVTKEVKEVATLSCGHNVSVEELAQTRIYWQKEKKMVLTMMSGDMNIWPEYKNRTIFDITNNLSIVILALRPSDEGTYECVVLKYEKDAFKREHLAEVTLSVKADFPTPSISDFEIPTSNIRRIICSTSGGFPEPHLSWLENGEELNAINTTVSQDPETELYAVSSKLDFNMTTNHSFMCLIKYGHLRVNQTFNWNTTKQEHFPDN

[3] = target: T4, human PD-1^ECD-hFc protein (Immunogen A) (human, UniProt Q15116 25-167); test: protein-based receptor ligand blocking assay (fully human antibodies), blocked ligand PD-L1
T4 construct: Biotinylated for the Octet assay; also called PD-1-hFc; hPD-1^ECD-hFc; not shown: human IgG Fc fragment (hFc)
Experimental: Purified PD-1^ECD-hFc (Example 2) was diluted with PBS to a final concentration of 1.0 ug/mL, and 100 uL diluted PD-1^ECD-hFc were added to each well of a 96-well plate that was then sealed with plastic film and incubated at 4° C. overnight. The plate was washed twice with wash buffer (PBS+0.01% (v/v) Tween 20) and incubated with blocking buffer (PBS+[…]) at room temperature for 2 hours. The blocking buffer was aspirated, and 50 uL purified anti-PD-1 antibodies from Example 2 were added to each well of 96-well plate. […] The plate was washed three times with wash buffer (PBS+0.01% (v/v) Tween 20). 100 uL HRP-conjugated streptavidin (Sigma) were then added to each well and incubated at 37° C. for 2 hours. The plate was then washed three times with wash buffer, and 100 uL TMB substrate were added to each well. After 30 minutes of incubation at room temperature, the reaction was stopped by adding 100 uL stop solution (0.1N HCl). The absorbance at OD450 nm was measured with an ELISA plate reader (384plus SpectraMax, Molecular Devices).
T4 sequence (Q15116 25-167): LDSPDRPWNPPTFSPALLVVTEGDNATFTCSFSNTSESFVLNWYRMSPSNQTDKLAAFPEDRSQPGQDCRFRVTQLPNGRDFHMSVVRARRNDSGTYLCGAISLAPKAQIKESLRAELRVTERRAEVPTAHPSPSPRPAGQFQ

[4] = target: T5, full length human PD-1 on cells (human, UniProt Q15116 25-288); test: cell-based receptor ligand blocking assay (fully human antibodies), blocked ligand PD-L1
T5 construct: Also used here for PD-1 on human T cells/PBMC; also called CHO-K1-hPD-1; hPD-1
T5 sequence (Q15116 25-288 limits assumed): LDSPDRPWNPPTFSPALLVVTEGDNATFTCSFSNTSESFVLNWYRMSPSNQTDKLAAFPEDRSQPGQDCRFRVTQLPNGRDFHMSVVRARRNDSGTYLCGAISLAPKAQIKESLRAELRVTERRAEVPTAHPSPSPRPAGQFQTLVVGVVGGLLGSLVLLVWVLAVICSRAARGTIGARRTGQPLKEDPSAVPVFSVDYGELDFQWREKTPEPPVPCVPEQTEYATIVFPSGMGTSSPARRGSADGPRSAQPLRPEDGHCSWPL

[5] = target: T4, human PD-1^ECD-hFc protein (Immunogen A); test: protein-based receptor ligand blocking assay (fully human antibodies), blocked ligand PD-L2
[6] = target: T6, cyno monkey PD-1^ECD-hFc protein (cyno monkey, UniProt B0LAJ3 25-167); test: ELISA, coated cyno PD-1ECD-hFc
T6 construct: also called cyno PD-1^ECD-hFc; not shown: human IgG Fc fragment (hFc) and its junction to the ECD
T6 sequence (B0LAJ3 entry or part of it limits assumed): as the sequence (Q15116 25-167) above, with D2E, P10A, V19L, T35A, Q75R counted along it

[7] = target: T7, human PD-1^ECD-hFc protein (Immunogen A) (human, UniProt Q15116 25-167); test: ELISA, coated human PD-1ECD-hFc
T7 construct: also called PD-1-hFc; hPD-1^ECD-hFc; not shown: human IgG Fc fragment (hFc)
T7 sequence (Q15116 25-167): as the sequence (Q15116 25-167) above

[8] = target: T8, human PD-1, full length, on cells (human, UniProt Q15116 25-288); test: flow cytometry on CHO-K1-hPD-1 cells
T8 construct: whole, on cells; in the lymphocyte assays the natural PD-1 of human T cells/PBMCs; also called hPD-1; CHO-K1-hPD-1
T8 sequence (Q15116 25-288): as the sequence (Q15116 25-288 limits assumed) above

ICOS [9] = target: T9, ICOS (human, UniProt Q9Y6W8 21-140, limits assumed); test: ELISA, coated protein, antibody concentration not given
T9 sequence (looked up): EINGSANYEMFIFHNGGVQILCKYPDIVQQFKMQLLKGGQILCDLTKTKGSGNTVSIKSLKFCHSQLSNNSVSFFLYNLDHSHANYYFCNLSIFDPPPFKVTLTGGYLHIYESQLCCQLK

CD28 = CD28 (human, UniProt P10747 19-152); test: as above
CD28, sequence (P10747 19-152 limits assumed): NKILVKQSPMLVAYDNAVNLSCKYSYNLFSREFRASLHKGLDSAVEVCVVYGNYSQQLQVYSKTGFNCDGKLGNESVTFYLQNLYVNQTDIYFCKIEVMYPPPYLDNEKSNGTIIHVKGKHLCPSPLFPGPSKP

NC-Fc = target: T10, NC-Fc; test: as above
T10 construct: seemingly a negative control Fc protein

CTLA4 [10] = target: T11, CTLA4 (human, UniProt P16410 37-162, limits assumed); test: as above
T11 sequence (looked up): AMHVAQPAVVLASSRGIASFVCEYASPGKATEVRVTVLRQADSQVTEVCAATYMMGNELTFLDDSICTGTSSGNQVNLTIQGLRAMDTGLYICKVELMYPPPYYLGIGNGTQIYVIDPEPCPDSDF

B7.1 = target: T12, B7.1 (human, UniProt P33681 35-242); test: as above
T12 sequence (looked up): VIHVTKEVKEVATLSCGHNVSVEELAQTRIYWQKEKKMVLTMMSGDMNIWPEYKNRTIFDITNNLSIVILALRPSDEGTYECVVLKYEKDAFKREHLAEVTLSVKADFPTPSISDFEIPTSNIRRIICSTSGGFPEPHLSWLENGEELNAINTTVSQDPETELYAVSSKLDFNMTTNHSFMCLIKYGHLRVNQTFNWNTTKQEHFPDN

[11] = target: T7, human PD-1^ECD-hFc protein (Immunogen A); test: as above

B1: fully human anti-PD-1 antibody 21G8F11 (antibody, human IgG4 S228P, kappa, V domains shown)
VH: EVQLLESGGGLAQPGGSLRLSCAASGFSFNTYLMHWVRQAPGKGLEWVSAISGGGGNTYYADSVKGRFTISRDNSKNTLYLQMNSLRAEDTAVYYCAKENRIPVAPFDYWGQGTLVTVSS
VL: DIQMTQSPSTLSASVGDRVTITCRASQSISTWLAWYQQKPGKAPKLLIYKASSLESGVPSRFSGSGSGTEFTLTISSLQPDDLATYYCQQYNSFSWTFGQGTKVEIKR
notes: also called 21G8F11 (fully human, IgG4 S228P / kappa)
binding result (ICOS [1]): no binding
binding result (CTLA4 [2]): no binding
binding result (B7-1): no binding
IC50 (read off the curve) [3]: ~1 nM
IC50 (read off the curve) [4]: ~5 nM
IC50 (read off the curve) [5]: ~1 nM

B2: fully human anti-PD-1 antibody 21G8F11 (antibody, human IgG4 S228P, kappa, V domains shown)
VH: EVQLLESGGGLAQPGGSLRLSCAASGFSFNTYLMHWVRQAPGKGLEWVSAISGGGGNTYYADSVKGRFTISRDNSKNTLYLQMNSLRAEDTAVYYCAKENRIPVAPFDYWGQGTLVTVSS
VL: DIQMTQSPSTLSASVGDRVTITCRASQSISTWLAWYQQKPGKAPKLLIYKASSLESGVPSRFSGSGSGTEFTLTISSLQPDDLATYYCQQYNSFSWTFGQGTKVEIKR
OD450 nm at 0 nM [6]: 0.19 OD450
OD450 nm at 0.0001 nM [6]: 0.15 OD450
OD450 nm at 0.001 nM [6]: 0.22 OD450
OD450 nm at 0.01 nM [6]: 0.51 OD450
OD450 nm at 0.1 nM [6]: 2.39 OD450
OD450 nm at 1 nM [6]: 2.99 OD450
OD450 nm at 10 nM [6]: 3.02 OD450
OD450 nm at 100 nM [6]: 3 OD450
OD450 nm at 0 nM [7]: 0.18 OD450
OD450 nm at 0.0001 nM [7]: 0.16 OD450
OD450 nm at 0.001 nM [7]: 0.26 OD450
OD450 nm at 0.01 nM [7]: 0.58 OD450
OD450 nm at 0.1 nM [7]: 2.62 OD450
OD450 nm at 1 nM [7]: 3.03 OD450
OD450 nm at 10 nM [7]: 3.02 OD450
OD450 nm at 100 nM [7]: 3.03 OD450
MFI at 0 nM [8]: 48.8 MFI
MFI at 0.01 nM [8]: 1020 MFI
OD450 nm (ICOS [9]): 0.16 OD450
OD450 nm (CD28): 0.27 OD450
OD450 nm (NC-Fc): 0.21 OD450
OD450 nm (CTLA4 [10]): 0.09 OD450
OD450 nm (B7.1): 0.25 OD450
OD450 nm [11]: 2.7 OD450

Source: US20180214548A1 (SHANGHAI YUNYI HEALTHCARE AND TECHNOLOGY, published 2018)
